In patent publication US20230242677A1:

Biological target: Protein A (Staphylococcus aureus) (UniProt P38507)
Test: Protein A interaction assay (POROS A column HPLC), acidic elution

hu IgG (positive control) (antibody)
retention time: 31.3 min
